In patent US20060257938A1, “Method of screening for drugs that block ligand binding to a lipid binding protein” (priority 2005, published 2006):

Key:
Assay type in all cases: binding
[1] = Probe fluorescence ratio response to arachidonic acid relative to ADIFAB2; details: arachidonic acid; response relative to ADIFAB2
How it was run: (§1)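 Fluorescently labeled rat intestinal FABP variants were read at two emission wavelengths, near the unbound maximum (about 420 to 480 nm) and the FFA-bound maximum (about 495 to 580 nm). R = Fλ1/Fλ2 after subtracting probe-free intensity; ΔR = R+agent − R0, normalized to ADIFAB2 (rI-FABP-L72A).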

[2] = Probe fluorescence ratio response to linolenic acid relative to ADIFAB2; details: response relative to ADIFAB2
How it was run: as §1

[3] = Probe fluorescence ratio response to linoleic acid relative to ADIFAB2; details: response relative to ADIFAB2
How it was run: as §1

[4] = Probe fluorescence ratio response to oleic acid relative to ADIFAB2; details: response relative to ADIFAB2
How it was run: as §1

[5] = Probe fluorescence ratio response to palmitic acid relative to ADIFAB2; details: response relative to ADIFAB2
How it was run: as §1

Row | Molecule | DR/DR AA [1] | DR/DR LNA [2] | DR/DR LA [3] | DR/DR OA [4] | DR/DR PA [5]
1 | 73Y, 72A (protein, listed as Rattus norvegicus, PEPTIDE (1)...(131) wild-type rat intestinal fatty acid binding protein) AFDGTWKVDRNENYEKFMEKMGINVVKRKLGAHDNLKLTITQEGNKFTVKESSNFRNIDVVFELGVDFAYSAYDGTELTGTWTMEGNKLVGKFKRVDNGKELIAVREISGNELIQTYTYEGVEAKRIFKKE | 1.529 | 1.603 | 1.711 | 1.537 | 0.982
2 | 70H, 72A (protein, listed as Rattus norvegicus, PEPTIDE (1)...(131) wild-type rat intestinal fatty acid binding protein) AFDGTWKVDRNENYEKFMEKMGINVVKRKLGAHDNLKLTITQEGNKFTVKESSNFRNIDVVFELGVDFAHSAADGTELTGTWTMEGNKLVGKFKRVDNGKELIAVREISGNELIQTYTYEGVEAKRIFKKE | 0.751 | 0.886 | 0.929 | 0.836 | 0.567
3 | 106F, 72A (protein, listed as Rattus norvegicus, PEPTIDE (1)...(131) wild-type rat intestinal fatty acid binding protein) AFDGTWKVDRNENYEKFMEKMGINVVKRKLGAHDNLKLTITQEGNKFTVKESSNFRNIDVVFELGVDFAYSAADGTELTGTWTMEGNKLVGKFKRVDNGKELIAVFEISGNELIQTYTYEGVEAKRIFKKE | 0.754 | 0.706 | 0.812 | 0.815 | 0.369
4 | 40V, 72A (protein, listed as Rattus norvegicus, PEPTIDE (1)...(131) wild-type rat intestinal fatty acid binding protein) AFDGTWKVDRNENYEKFMEKMGINVVKRKLGAHDNLKLTVTQEGNKFTVKESSNFRNIDVVFELGVDFAYSAADGTELTGTWTMEGNKLVGKFKRVDNGKELIAVREISGNELIQTYTYEGVEAKRIFKKE | 1.013 | 1.059 | 1.057 | 1.002 | 0.867
5 | 115W, 72A (protein, listed as Rattus norvegicus, PEPTIDE (1)...(131) wild-type rat intestinal fatty acid binding protein) AFDGTWKVDRNENYEKFMEKMGINVVKRKLGAHDNLKLTITQEGNKFTVKESSNFRNIDVVFELGVDFAYSAADGTELTGTWTMEGNKLVGKFKRVDNGKELIAVREISGNELIWTYTYEGVEAKRIFKKE | 1.483 | 1.396 | 1.486 | 1.352 | 0.805
6 | 49M, 72A (protein, listed as Rattus norvegicus, PEPTIDE (1)...(131) wild-type rat intestinal fatty acid binding protein) AFDGTWKVDRNENYEKFMEKMGINVVKRKLGAHDNLKLTITQEGNKFTMKESSNFRNIDVVFELGVDFAYSAADGTELTGTWTMEGNKLVGKFKRVDNGKELIAVREISGNELIQTYTYEGVEAKRIFKKE | 1.363 | 1.369 | 1.370 | 1.296 | 0.939
7 | 18L, 72A (protein, listed as Rattus norvegicus, PEPTIDE (1)...(131) wild-type rat intestinal fatty acid binding protein) AFDGTWKVDRNENYEKFLEKMGINVVKRKLGAHDNLKLTITQEGNKFTVKESSNFRNIDVVFELGVDFAYSAADGTELTGTWTMEGNKLVGKFKRVDNGKELIAVREISGNELIQTYTYEGVEAKRIFKKE | 1.490 | 1.544 | 1.596 | 1.551 | 1.090
8 | 14L 38I 72A (protein, listed as Rattus norvegicus, PEPTIDE (1)...(131) wild-type rat intestinal fatty acid binding protein) AFDGTWKVDRNENLEKFMEKMGINVVKRKLGAHDNLKITITQEGNKFTVKESSNFRNIDVVFELGVDFAYSAADGTELTGTWTMEGNKLVGKFKRVDNGKELIAVREISGNELIQTYTYEGVEAKRIFKKE | 1.046 | 1.177 | 1.090 | 0.653 | 0.712
9 | 21D, 72A (protein, listed as Rattus norvegicus, PEPTIDE (1)...(131) wild-type rat intestinal fatty acid binding protein) AFDGTWKVDRNENYEKFMEKDGINVVKRKLGAHDNLKLTITQEGNKFTVKESSNFRNIDVVFELGVDFAYSAADGTELTGTWTMEGNKLVGKFKRVDNGKELIAVREISGNELIQTYTYEGVEAKRIFKKE | 1.301 | 1.478 | 1.562 | 1.345 | 0.707
10 | 119L, 72A (protein, listed as Rattus norvegicus, PEPTIDE (1)...(131) wild-type rat intestinal fatty acid binding protein) AFDGTWKVDRNENYEKFMEKMGINVVKRKLGAHDNLKLTITQEGNKFTVKESSNFRNIDVVFELGVDFAYSAADGTELTGTWTMEGNKLVGKFKRVDNGKELIAVREISGNELIQTYTLEGVEAKRIFKKE | 1.021 | 1.053 | 1.134 | 0.778 | 0.661
11 | 72A 117A (protein, listed as Rattus norvegicus, PEPTIDE (1)...(131) wild-type rat intestinal fatty acid binding protein) AFDGTWKVDRNENYEKFMEKMGINVVKRKLGAHDNLKLTITQEGNKFTVKESSNFRNIDVVFELGVDFAYSAADGTELTGTWTMEGNKLVGKFKRVDNGKELIAVREISGNELIQTATYEGVEAKRIFKKE | 1.480 | 0.689 | 1.193 | 1.080 | 0.433
12 | 18K, 72A (protein, listed as Rattus norvegicus, PEPTIDE (1)...(131) wild-type rat intestinal fatty acid binding protein) AFDGTWKVDRNENYEKFKEKMGINVVKRKLGAHDNLKLTITQEGNKFTVKESSNFRNIDVVFELGVDFAYSAADGTELTGTWTMEGNKLVGKFKRVDNGKELIAVREISGNELIQTYTYEGVEAKRIFKKE | 0.800 | 0.925 | 0.967 | 0.803 | 0.544
13 | 40M, 72A (protein, listed as Rattus norvegicus, PEPTIDE (1)...(131) wild-type rat intestinal fatty acid binding protein) AFDGTWKVDRNENYEKFMEKMGINVVKRKLGAHDNLKLTMTQEGNKFTVKESSNFRNIDVVFELGVDFAYSAADGTELTGTWTMEGNKLVGKFKRVDNGKELIAVREISGNELIQTYTYEGVEAKRIFKKE | 0.993 | 1.021 | 1.086 | 0.990 | 0.691
14 | 38G, 72A (protein, listed as Rattus norvegicus, PEPTIDE (1)...(131) wild-type rat intestinal fatty acid binding protein) AFDGTWKVDRNENYEKFMEKMGINVVKRKLGAHDNLKGTITQEGNKFTVKESSNFRNIDVVFELGVDFAYSAADGTELTGTWTMEGNKLVGKFKRVDNGKELIAVREISGNELIQTYTYEGVEAKRIFKKE | 0.996 | 0.992 | 1.003 | 0.945 | 0.447
15 | 31W, 72A (protein, listed as Rattus norvegicus, PEPTIDE (1)...(131) wild-type rat intestinal fatty acid binding protein) AFDGTWKVDRNENYEKFMEKMGINVVKRKLWAHDNLKLTITQEGNKFTVKESSNFRNIDVVFELGVDFAYSAADGTELTGTWTMEGNKLVGKFKRVDNGKELIAVREISGNELIQTYTYEGVEAKRIFKKE | 0.993 | 1.031 | 1.147 | 0.868 | 0.618
16 | 38Y 72G 117M (protein, listed as Rattus norvegicus, PEPTIDE (1)...(131) wild-type rat intestinal fatty acid binding protein) AFDGTWKVDRNENYEKFMEKMGINVVKRKLGAHDNLKYTITQEGNKFTVKESSNFRNIDVVFELGVDFAYSGADGTELTGTWTMEGNKLVGKFKRVDNGKELIAVREISGNELIQTMTYEGVEAKRIFKKE | 1.541 | 1.228 | 1.233 | 1.137 | 0.574
17 | 126K, 72A (protein, listed as Rattus norvegicus, PEPTIDE (1)...(131) wild-type rat intestinal fatty acid binding protein) AFDGTWKVDRNENYEKFMEKMGINVVKRKLGAHDNLKLTITQEGNKFTVKESSNFRNIDVVFELGVDFAYSAADGTELTGTWTMEGNKLVGKFKRVDNGKELIAVREISGNELIQTYTYEGVEAKKIFKKE | 0.625 | 1.017 | 1.039 | 0.631 | 0.356
